Experimental data: US20200079833A1 (AstraZeneca / MedImmune, published 2020)
Starred links: 1 amine or outer side, 2 acyl side, 3 side chain; linkers in the order of their positions; H or OH if unused. Non-standard residues stand in square brackets, D forms with d. Groups on a side chain read outwards from the residue. Primed or numbered codes have the meaning given here. No end group written: not given here. *: point of attachment. γGlu = O=C(O)[C@H](CCC(=O)[*:2])N[*:1]; αMeF = C[C@](N)(Cc1ccccc1)C(=O)O; αMeK = C[C@](N)(CCCCN)C(=O)O; Lauroyl = CCCCCCCCCCCC(=O)*; αMeS = C[C@](N)(CO)C(=O)O; PEG2′ = not defined here; Aib = CC(C)(N)C(=O)O

T1: glucose-dependent insulinotropic peptide (gastric inhibitory polypeptide) receptor (GIPR), primary cAMP assay … (human, UniProt P48546 22-466)
T1 sequence (looked up): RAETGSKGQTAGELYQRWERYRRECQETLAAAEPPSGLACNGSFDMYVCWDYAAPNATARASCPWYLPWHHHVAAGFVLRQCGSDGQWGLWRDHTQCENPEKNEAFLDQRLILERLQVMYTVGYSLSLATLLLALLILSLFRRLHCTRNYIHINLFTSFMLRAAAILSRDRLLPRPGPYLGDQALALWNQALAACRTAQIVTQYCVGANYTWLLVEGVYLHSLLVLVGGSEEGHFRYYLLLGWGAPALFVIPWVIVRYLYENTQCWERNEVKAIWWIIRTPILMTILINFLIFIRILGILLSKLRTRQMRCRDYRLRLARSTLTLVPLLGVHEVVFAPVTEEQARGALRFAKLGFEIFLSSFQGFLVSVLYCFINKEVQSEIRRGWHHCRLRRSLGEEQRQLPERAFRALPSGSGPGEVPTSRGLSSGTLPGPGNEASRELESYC


Experiments:
Assay in all cases: cell-based or functional assay
[1] = target: GLP-1 receptor (GLP-1R), primary cAMP assay cell line (human, UniProt P43220 24-463)
[2] = target: T1, glucose-dependent insulinotropic …
[3] = target: glucagon receptor (GCGR), primary cAMP assay cell line (human, UniProt P47871 26-477)
glucagon receptor (GCGR), primary cAMP assay cell line, sequence (P47871 26-477): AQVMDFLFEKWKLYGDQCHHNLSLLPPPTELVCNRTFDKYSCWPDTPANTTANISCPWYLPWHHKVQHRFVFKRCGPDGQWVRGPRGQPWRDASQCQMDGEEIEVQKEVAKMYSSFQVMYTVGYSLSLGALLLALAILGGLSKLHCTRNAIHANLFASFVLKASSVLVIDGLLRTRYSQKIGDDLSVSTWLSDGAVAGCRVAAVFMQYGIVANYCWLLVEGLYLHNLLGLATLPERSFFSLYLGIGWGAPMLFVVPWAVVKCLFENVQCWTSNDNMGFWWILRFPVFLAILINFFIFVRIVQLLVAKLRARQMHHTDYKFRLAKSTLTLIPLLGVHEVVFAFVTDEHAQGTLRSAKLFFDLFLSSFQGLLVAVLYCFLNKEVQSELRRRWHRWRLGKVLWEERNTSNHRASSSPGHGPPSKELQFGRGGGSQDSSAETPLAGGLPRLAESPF

Row | Binder | cAMP Primary assay EC50, Mean pM GLP-1R [1] [pM] | cAMP Primary assay EC50, n1 [1] [nM] | cAMP Primary assay EC50, n2 [1] [nM] | cAMP Primary assay EC50, n1 [2] [nM] | cAMP Primary assay EC50, n2 [2] [nM] | cAMP Primary assay EC50, n1 [3] [nM] | cAMP Primary assay EC50, n2 [3] [nM]
1 | H[Aib]EGS[αMeF]TSDV[αMeS]SK([PEG2′-PEG2′-γGlu-Lauroyl])LEK([PEG2′-PEG2′-γGlu-Lauroyl])EAA[αMeK]EFIAFK([PEG2′-PEG2′-γGlu-Lauroyl])VEGG-NH2 [SEQ ID NO: 479] | 186 | 0.132 | 0.239 | 19.8 | 19.8 | 19.8 | 19.8
2 | H[Aib]EGS[αMeF]TSDVSK([PEG2′-PEG2′-γGlu-Lauroyl])YLEGEAA[αMeK]K([PEG2′-PEG2′-γGlu-Lauroyl])FIAFK([PEG2′-PEG2′-γGlu-Lauroyl])VEGG-NH2 [SEQ ID NO: 478] | 118 | 0.103 | 0.134 | 19.8 | 19.8 | 19.8 | 19.8
3 | H[Aib]EGS[αMeF]TSDV[αMeS]SYK([PEG2′-PEG2′-γGlu-Lauroyl])EGEK([PEG2′-PEG2′-γGlu-Lauroyl])A[αMeK]EFIAFK([PEG2′-PEG2′-γGlu-Lauroyl])VEGG-NH2 [SEQ ID NO: 485] | 196 | 0.167 | 0.224 | 19.6 | 19.6 | 19.6 | 19.6
4 | H[Aib]EGS[αMeF]TSDK([PEG2′-PEG2′-γGlu-Lauroyl])SSYLEGK([PEG2′-PEG2′-γGlu-Lauroyl])AA[αMeK]EFIAFK([PEG2′-PEG2′-γGlu-Lauroyl])VEGG-NH2 [SEQ ID NO: 472] | 287 | 0.297 | 0.277 | 19.9 | 19.9 | 19.9 | 19.9
5 | H[Aib]EGS[αMeF]TSDK([PEG2′-PEG2′-γGlu-Lauroyl])SSYLEK([PEG2′-PEG2′-γGlu-Lauroyl])EAA[αMeK]EFIAFK([PEG2′-PEG2′-γGlu-Lauroyl])VEGG-NH2 [SEQ ID NO: 471] | 374 | 0.277 | 0.47 | 19.6 | 19.6 | 19.6 | 19.6
6 | H[Aib]EGS[αMeF]TSDV[αMeS]SYK([PEG2′-PEG2′-γGlu-Lauroyl])EGEAA[αMeK]K([PEG2′-PEG2′-γGlu-Lauroyl])FIAFK([PEG2′-PEG2′-γGlu-Lauroyl])VEGG-NH2 [SEQ ID NO: 486] | 212 | 0.165 | 0.259 | 19.9 | 19.9 | 19.9 | 19.9
7 | H[Aib]EGS[αMeF]TSDVSK([PEG2′-PEG2′-γGlu-Lauroyl])YLEK([PEG2′-PEG2′-γGlu-Lauroyl])EAA[αMeK]EFIAFK([PEG2′-PEG2′-γGlu-Lauroyl])VEGG-NH2 [SEQ ID NO: 475] | 288 | 0.228 | 0.347 | 19.5 | 19.5 | 19.5 | 19.5
8 | H[Aib]EGS[αMeF]TSDVSK([PEG2′-PEG2′-γGlu-Lauroyl])YLEGK([PEG2′-PEG2′-γGlu-Lauroyl])AA[αMeK]EFIAFK([PEG2′-PEG2′-γGlu-Lauroyl])VEGG-NH2 [SEQ ID NO: 476] | 216 | 0.174 | 0.257 | 19.8 | 19.8 | 19.8 | 19.8
9 | H[Aib]EGS[αMeF]TSDVSK([PEG2′-PEG2′-γGlu-Lauroyl])YLEGEK([PEG2′-PEG2′-γGlu-Lauroyl])A[αMeK]EFIAFK([PEG2′-PEG2′-γGlu-Lauroyl])VEGG-NH2 [SEQ ID NO: 477] | 264 | 0.226 | 0.302 | 19.6 | 19.6 | 19.6 | 19.6
10 | H[Aib]EGS[αMeF]TSDV[αMeS]SK([PEG2′-PEG2′-γGlu-Lauroyl])LEGEK([PEG2′-PEG2′-γGlu-Lauroyl])A[αMeK]EFIAFK([PEG2′-PEG2′-γGlu-Lauroyl])VEGG-NH2 [SEQ ID NO: 481] | 143 | 0.137 | 0.149 | 19.8 | 19.8 | 19.8 | 19.8
11 | H[Aib]EGS[αMeF]TSDV[αMeS]SYK([PEG2′-PEG2′-γGlu-Lauroyl])EGK([PEG2′-PEG2′-γGlu-Lauroyl])AA[αMeK]EFIAFK([PEG2′-PEG2′-γGlu-Lauroyl])VEGG-NH2 [SEQ ID NO: 484] | 166 | 0.163 | 0.168 | 19.9 | 19.9 | 19.9 | 19.9
12 | H[Aib]EGS[αMeF]TSDK([PEG2′-PEG2′-γGlu-Lauroyl])SSYLEGEAA[αMeK]K([PEG2′-PEG2′-γGlu-Lauroyl])FIAFK([PEG2′-PEG2′-γGlu-Lauroyl])VEGG-NH2 [SEQ ID NO: 474] | 290 | 0.279 | 0.3 | 19.9 | 19.9 | 19.9 | 19.9
13 | H[Aib]EGS[αMeF]TSDV[αMeS]SYK([PEG2′-PEG2′-γGlu-Lauroyl])EK([PEG2′-PEG2′-γGlu-Lauroyl])EAA[αMeK]EFIAFK([PEG2′-PEG2′-γGlu-Lauroyl])VEGG-NH2 [SEQ ID NO: 483] | 244 | 0.229 | 0.258 | 19.6 | 19.6 | 19.6 | 19.6
14 | H[Aib]EGS[αMeF]TSDK([PEG2′-PEG2′-γGlu-Lauroyl])SSYLEGEK([PEG2′-PEG2′-γGlu-Lauroyl])A[αMeK]EFIAFK([PEG2′-PEG2′-γGlu-Lauroyl])VEGG-NH2 [SEQ ID NO: 473] | 434 | 0.399 | 0.47 | 19.6 | 19.6 | 19.6 | 19.6
